Biological target: T1, antigen 4-1BB (Sino Biological, Cat. No. 10041-H08H) (UniProt Q07011 24-186)
T1 construct: Bought protein used as SPR analyte; also called CD137
Test: SPR (Biacore T200), sample captured on the chip by Fc, 4-1BB as analyte

T1 sequence (Q07011 24-186 limits assumed): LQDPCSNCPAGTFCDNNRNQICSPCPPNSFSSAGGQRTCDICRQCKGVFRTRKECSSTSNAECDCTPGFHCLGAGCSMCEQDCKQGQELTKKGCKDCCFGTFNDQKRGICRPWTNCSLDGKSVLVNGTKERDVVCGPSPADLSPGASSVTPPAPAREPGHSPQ

B1: Urelumab (antibody, V domains shown)
VH: QVQLQQWGAGLLKPSETLSLTCAVYGGSFSGYYWSWIRQSPEKGLEWIGEINHGGYVTYNPSLESRVTISVDTSKNQFSLKLSSVTAADTAVYYCARDYGPGNYDWYFDLWGRGTLVTVSS
VL: EIVLTQSPATLSLSPGERATLSCRASQSVSSYLAWYQQKPGQAPRLLIYDASNRATGIPARFSGSGSGTDFTLTISSLEPEDFAVYYCQQRSNWPPALTFGGGTKVEIK
Kd: 3.22 nM | koff: 0.00159 s⁻¹ | kon: 496000 M⁻¹ s⁻¹

Reference: patent EP4737479A1 (Bio-Thera Solutions, Ltd., dated 2026)
